In patent US20130195901A1 (published 2013):

Tests used:
[1] = target: T1, HLA-A*0201 class I monomer of the iTopia Epitope Discovery System; assay: iTopia binding ED50
[2] = target: T1, HLA-A*0201 class I monomer of the …; assay: iTopia binding ED50; remark: listed apart in the source
[3] = target: T1, HLA-A*0201 class I monomer of the …; assay: iTopia binding ED50; remark: listed apart in the source
[4] = target: T1, HLA-A*0201 class I monomer of the …; assay: iTopia binding ED50; remark: listed apart in the source
[5] = target: T1, HLA-A*0201 class I monomer of the …; assay: iTopia binding ED50; remark: listed apart in the source
[6] = target: T1, HLA-A*0201 class I monomer of the …; assay: iTopia peptide binding (ED50)

Row | Binder | EC50 [1] | EC50 [3] | also measured
1 | AVPSIPVHPV [PSMA288-297 analog, Ala at P1, Val at P2, Val at PΩ] |  |  | EC50 [2]: 1080 nM
2 | GLPSIPVHAI [PSMA288-297 analog, Ala at PΩ-1] | 816 nM |  | 
3 | GQPSIPVHPI [PSMA288-297 analog, Gln at P2] |  | 669 nM | 
4 | GLPSIPVHPI [PSMA288-297] |  | 1330 nM | EC50 [4]: 1330 nM; EC50 [2]: 1330 nM
5 | ALPSIPVHPV [PSMA288-297 analog, Ala at P1 and Val at PΩ] |  |  | EC50 [5]: 5970 nM
6 | ALWSIPVHPV [PSMA288-297 analog, Ala at P1, Trp at P3, Val at PΩ] |  |  | EC50 [6]: 494 nM

Second part, led by results:

Row | EC50 [1] | EC50 [3] | Binder | also measured
7 | 483 nM |  | GLPSIPVHTI [PSMA288-297 analog, Thr at PΩ-1] | 
8 | 586 nM |  | GLPSIPVHLI [PSMA288-297 analog, Leu at PΩ-1] | 
9 | 447 nM |  | GLPSIPVHSI [PSMA288-297 analog, Ser at PΩ-1] | 
10 | 1170 nM |  | GLPSIPVHPL [PSMA288-297 analog, Leu at PΩ] | 
11 |  | 1070 nM | GMPSIPVHPI [PSMA288-297 analog, Met at P2] | 
12 |  | 2410 nM | GVPSIPVHPI [PSMA288-297 analog, Val at P2] | 
